Like-named read-outs stand apart in the source and are kept apart here. Non-standard residues stand in square brackets, D forms with d. Residues, ends and D or L forms follow the SMILES beside them. No end group written: not given here. *: point of attachment. dPhe(F5) = N[C@H](Cc1c(F)c(F)c(F)c(F)c1F)C(=O)O; X2 = CC(C)C[C@@H](CN[C@@H](CC(C)C)C(N)=O)N*; Sta = CC(C)C[C@H](N)[C@@H](O)CC(=O)O; pGlu = O=C1CC[C@@H](C(=O)O)N1; dNMeA = CN[C@H](C)C(=O)O

Assay [1] addresses T1, 3T3 fibroblast bombesin receptors (3T3 GRP receptor) (Mus musculus, UniProt P21729).
T1 construct: Membranes from various tissues (rat brain, rat pancreas, rat anterior pituitary, SCLC, 3T3 cells) are prepared by homogenization; endogenous in cells; host or cells: 3T3 fibroblasts (membrane preparation)
Briefly: In vitro inhibition of [125I]GRP binding to 3T3 fibroblast bombesin receptors. Also on record: species or system murine. To be noted: for activity in the 3T3 GRP receptor binding assay (in words): Table 1. On the procedure: Phase 4—In Vitro Inhibition of [^125I] Gastrin Releasing Peptide (GRP) Binding to Bombesin Receptors
Membranes from various tissues (rat brain, rat pancreas, rat anterior pituitary, SCLC, 3T3 cells) are prepared by homogenization in 50 mM TrisHCl containing 0.1% bovine serum albumin and 0.1 mg/ml bacitracin followed by two centrifugations (39,000×g×15 min., 4° C.) with an intermediate resuspension in-fresh buffer. For assay, aliquots […] are incubated with 0.5 nM [^125I]GRP (˜2000 Ci/mmol, Amersham Corp.) and various concentrations of the test compounds in a final volume of 0.5 ml. After a 30 minute incubation at 4° C., the binding reaction is terminated by rapid filtration through Whatman GF/C filters that have been pre-soaked in 0.3% aqueous polethyleneimine to reduce the level of nonspecific binding. The filters and tubes are washed three times with 4 ml aliquots of ice-cold buffer, and the radioactivity trapped on the filters is counted by gamma-spectrometry. Specific binding is defined as the total. [^125I]GRP bound minus that bound in the presence of 1000 nM. bombesin or a related peptide.
(§1) A number of analogs of bombesin or GRP, each containing a non-peptide bond or a statine, AHPPA, or ACHPA, β-amino acid, or γ-amino acid residue, can be synthesized and tested in one or more of the above-described Phase 1-7 assays; the results of Phase 1 and 2 tests are given in Table 1 attached hereto. […] (3T3 GRP receptor and thymidine uptake data are expressed in IC50 (nM).) Table 1 also gives results for non-peptide bond-containing analogs of one other naturally-occurring peptide, Neuromedin C, whose C-terminal seven amino acids are similar to those of bombesin and GRP. (In Table 1, “Litorin” indicates a 9 residue peptide analog or its derivative, whereas “Neuromedin C” indicates a 10 residue analog or its derivative.)

The target in assay [2] is swiss 3T3 cells (Mus musculus, UniProt P21729). The assay is described as follows: Bombesin-stimulated [3H]thymidine uptake by cultured 3T3 cells. To be noted: Table 1. The assay is classed as cell-based, murine. On the procedure:
Phase 1—3T3 Peptide Stimulated [^3H] Thymidine Uptake Assay
Cell Culture. Stock cultures of swiss 3T3 cells are grown in Dulbecco's Modified Eagles Medium (DMEM) supplemented with 10% fetal calf serum in humidified atmosphere of 10% CO2/90% air at 37° C. For experimental use, the cells are seeded into 24-well cluster trays and used four days after she last change of medium. The cells are arrested in the G1/G0 phase of the cell cycle by changing to serum-free DMEM 24 hours prior to the thymidine uptake assay.
Assay of DNA Synthesis. The cells are washed twice with 1 ml aliquots of DMEM (-serum) then incubated with DMEM (-serum), 0.5 μM [methyl-^3H] thymidine (20 Ci/mmole, New England Nuclear), bombesin (3 nM), and initially four concentrations of the test compounds (1, 10, 100, 1000 nM) in a final volume of 1.0 ml. After 28 hours at 37° C., [methyl-^3H] thymidine incorporation into acid-insoluble pools is assayed as follows. The cells are washed twice with ice-cold 0.9% NaCl (1 ml aliquots), and acid soluble radioactivity is removed by a 30 min. (4° C.) incubation with 5% trichloroacetic acid (TCA). The cultures are then washed once (1 ml) with 95% ethanol and solubilized by a 30 min. incubation (1 ml) with 0.1N NaOH. The solubilized material is transferred to vials containing 10 ml ScintA (Packard), and the radioactivity is determined by liquid scintillation spectrometry.
as §1

For assay [3], the target named is T2, bombesin receptor (Rattus norvegicus, UniProt P52500).
T2 construct: displace ^125I-labeled bombesin from rat pancreatic acini cells; from tissue; host or cells: rat pancreatic acini cells
The assay is described as follows: Displacement of 125I-labeled bombesin from rat pancreatic acini cells. The assay is classed as binding. To be noted: read-out: half-maximal effective dose, displacement of 125I-labeled bombesin. The source says:
D-Phe-Gln-Trp-Ala-Val-N-methyl-D-Ala-His-Leu-methylester and D-F5-Phe-Gln-Trp-Ala-Val-D-Ala-His-Leu-methylester were examined for their abilities to displace ^125I-labeled bombesin from rat pancreatic acini cells and to inhibit amylase release from these cells produced by bombesin itself.
(In general: In a radioligand displacement assay an active substance lowers the binding of a labelled ligand.)

The target of assay [4] is 3T3 fibroblast bombesin receptors (murine (3T3 murine fibroblasts)) (UniProt P21729).
For assay [5] the target is unchanged. The assay is described as follows: inhibition of [125I]GRP binding to 3T3 cell membranes.
Assay [6] concerns the target 3T3 fibroblast bombesin receptors (murine (3T3 murine fibroblasts), UniProt P21729). Described as above.
The mark [7] stands for this setting: inhibition of [125I]GRP binding, 3T3 membranes, read-out: 3T3 GRP Receptor IC50.

Sequence of 3T3 fibroblast bombesin receptors (murine (3T3 murine fibroblasts)) (P21729 whole entry): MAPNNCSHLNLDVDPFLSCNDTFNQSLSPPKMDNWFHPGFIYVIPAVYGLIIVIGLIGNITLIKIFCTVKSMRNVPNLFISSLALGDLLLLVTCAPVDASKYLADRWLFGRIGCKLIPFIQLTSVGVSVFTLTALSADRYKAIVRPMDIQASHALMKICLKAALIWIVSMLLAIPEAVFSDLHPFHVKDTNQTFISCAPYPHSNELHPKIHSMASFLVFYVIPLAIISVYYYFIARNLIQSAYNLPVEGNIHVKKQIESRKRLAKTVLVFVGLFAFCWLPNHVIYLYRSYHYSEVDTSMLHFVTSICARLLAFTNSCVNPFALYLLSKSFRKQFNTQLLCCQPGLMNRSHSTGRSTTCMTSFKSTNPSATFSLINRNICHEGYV
Sequence of swiss 3T3 cells (P21729 whole entry): as above
T1 sequence (P21729 whole entry): as above
T2 sequence (P52500 whole entry): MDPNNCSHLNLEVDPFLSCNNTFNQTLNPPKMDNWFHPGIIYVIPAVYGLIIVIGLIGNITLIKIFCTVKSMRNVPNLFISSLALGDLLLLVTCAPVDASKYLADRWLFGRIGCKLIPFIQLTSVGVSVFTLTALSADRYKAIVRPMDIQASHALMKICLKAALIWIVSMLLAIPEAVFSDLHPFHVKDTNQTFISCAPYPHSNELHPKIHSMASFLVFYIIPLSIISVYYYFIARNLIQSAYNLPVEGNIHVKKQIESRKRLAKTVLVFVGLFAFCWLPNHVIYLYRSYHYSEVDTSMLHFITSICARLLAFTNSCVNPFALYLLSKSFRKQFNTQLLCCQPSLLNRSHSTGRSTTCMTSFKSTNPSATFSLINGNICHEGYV

Consider `CC(C)C[C@@H](CN[C@@H](CC(C)C)C(N)=O)NC(=O)[C@H](Cc1c[nH]cn1)NC(=O)[C@@H](C)NC(=O)[C@@H](NC(=O)[C@H](C)NC(=O)[C@H](Cc1c[nH]c2ccccc12)NC(=O)[C@H](Cc1c[nH]cn1)NC(=O)[C@H](CC(N)=O)NC(=O)[C@@H](C)N)C(C)C` [BIM-26105, D-Ala-Asn-His-Trp-Ala-Val-D-ALa-His-Leuψ[CH2CH]Leu-NH2] (H-[dA]NHWAV[dA]H-X2; N-terminus assumed), for which, in assay [1], the IC50 came to 107 nM and the “activity in the 3T3 GRP receptor binding assay (in words)” value is recorded as “antagonists”. Moreover, the “activity in the 3T3 thymidine uptake assay (in words)” value in assay [2] is listed as “antagonists”.

For `CC(C)C[C@@H](CN[C@@H](CC(C)C)C(N)=O)NC(=O)[C@H](Cc1c[nH]cn1)NC(=O)[C@@H](C)NC(=O)[C@@H](NC(=O)[C@H](C)NC(=O)[C@H](Cc1c[nH]c2ccccc12)NC(=O)[C@H](Cc1c[nH]cn1)NC(=O)[C@@H](C)N)C(C)C` [BIM-26106, desGly-D-Ala-His-Trp-Ala-Val-D-ALa-His-Leuψ[CH2CH]Leu-NH2] (H-[dA]HWAV[dA]H-X2; N-terminus assumed), in assay [1], the “activity in the 3T3 GRP receptor binding assay (in words)” value is listed as “antagonists”. Moreover, the IC50 in assay [1] (setting [7]) was 401 nM. Besides, in assay [2], the “activity in the 3T3 thymidine uptake assay (in words)” value is listed as “antagonists”.

For the molecule `CC(C)C[C@@H](CN[C@@H](CC(C)C)C(N)=O)NC(=O)[C@H](Cc1c[nH]cn1)NC(=O)CNC(=O)[C@@H](NC(=O)[C@H](C)NC(=O)[C@H](Cc1c[nH]c2ccccc12)NC(=O)[C@H](Cc1c[nH]cn1)NC(=O)[C@H](N)Cc1ccccc1)C(C)C` [BIM-26107, D-Phe-His-Trp-Ala-Val-Gly-His-Leuψ[CH2NH]Leu-NH2] (H-[dF]HWAVGH-X2), the “activity in the 3T3 GRP receptor binding assay (in words)” value in assay [1] was “antagonists”. Besides, the IC50 in assay [1] (setting [7]) is 199 nM. Moreover, the “activity in the 3T3 thymidine uptake assay (in words)” value in assay [2] was “antagonists”.

On to `CC(=O)N[C@H](C)C(=O)N[C@@H](Cc1c[nH]cn1)C(=O)N[C@@H](Cc1c[nH]c2ccccc12)C(=O)N[C@@H](C)C(=O)N[C@H](C(=O)NCC(=O)N[C@@H](Cc1c[nH]cn1)C(=O)N[C@H](CN[C@@H](CC(C)C)C(N)=O)CC(C)C)C(C)C` [BIM-26108, N-Ac-D-Ala-His-Trp-Ala-Val-Gly-His-Leuψ[CH2NH]Leu-NH2] (Ac-[dA]HWAVGH-X2), for which the IC50 in assay [1] (setting [7]) worked out at 841 nM. In assay [2], the “activity in the 3T3 thymidine uptake assay (in words)” value is given as “negative results”.

As to `COC(=O)[C@H](CC(C)C)NC(=O)[C@H](Cc1c[nH]cn1)NC(=O)[C@@H](C)NC(=O)[C@@H](NC(=O)[C@H](C)NC(=O)[C@H](Cc1c[nH]c2ccccc12)NC(=O)[C@H](CCC(N)=O)NC(=O)[C@H](N)Cc1c(F)c(F)c(F)c(F)c1F)C(C)C` [D-F5-Phe-Gln-Trp-Ala-Val-D-Ala-His-Leu-methylester] (H-[dPhe(F5)]QWAV[dA]HL-OMe), in assay [3], the IC50 was in the range of 5 to 10 nM.

Consider `COC(=O)[C@H](CC(C)C)NC(=O)[C@H](Cc1c[nH]cn1)NC(=O)[C@@H](C)N(C)C(=O)[C@@H](NC(=O)[C@H](C)NC(=O)[C@H](Cc1c[nH]c2ccccc12)NC(=O)[C@H](CCC(N)=O)NC(=O)[C@H](N)Cc1ccccc1)C(C)C` [D-Phe-Gln-Trp-Ala-Val-N-methyl-D-Ala-His-Leu-methylester] (H-[dF]QWAV[dNMeA]HL-OMe), for which the IC50 in assay [3] lay in the range of 5 to 10 nM.

For “BIM-26114, D-Nal-Gln-Trp-Ala-Val-Gly-His-Leuψ[CH2NH]Leu-NH2 (Litorin analog) (peptide)”, the bombesin-stimulated [3H]Thymidine uptake, IC50 in assay [4] worked out at 28 nM. The molecule also yielded an IC50 in assay [5] of 23.5 nM.

For the molecule “BIM-26136, D-Nal-Gln-Trp-Ala-Val-Gly-His-Leuψ[CH2NH]Phe-NH2 (Litorin analog) (peptide)”, the bombesin-stimulated [3H]Thymidine uptake, IC50 in assay [4] worked out at 3.3 nM. Also, in assay [5], the IC50 was found to be 1.4 nM.

As for “BIM-26182, D-Cpa-Gln-Trp-Ala-Val-Gly-His-β-Leu-NH2 (Litorin analog) (peptide)”, the bombesin-stimulated [3H]Thymidine uptake, IC50 in assay [4] turned out to be 4.77 nM. The molecule also showed an IC50 in assay [5] of 0.88 nM.

B1: BIM-26120, pGlu-Gln-Trp-Ala-Val-Gly-His-Sta-NH2 (Litorin analog) (peptide)
peptide: [pGlu]QWAVGH[Sta]-NH2
SMILES: CC(C)C[C@H](NC(=O)[C@H](Cc1c[nH]cn1)NC(=O)CNC(=O)[C@@H](NC(=O)[C@H](C)NC(=O)[C@H](Cc1c[nH]c2ccccc12)NC(=O)[C@H](CCC(N)=O)NC(=O)[C@@H]1CCC(=O)N1)C(C)C)[C@@H](O)CC(N)=O
For B1, the bombesin-stimulated [3H]Thymidine uptake, IC50 in assay [4] was 165 nM. Besides, the IC50 in assay [6] was 150 nM.

B2: BIM-26100, pGlu-Gln-Trp-Ala-Val-Gly-His-Pheψ[CH2NH]Leu-NH2 (Litorin analog) (peptide)
peptide: EQWAVGHFL
modifications: pGlu at 1 (written E); reduced peptide bond ψ[CH2NH] between Phe 8 and Leu 9; C-terminal amide
As to B2, in assay [4], the bombesin-stimulated [3H]Thymidine uptake, IC50 came to 26 nM. Also, in assay [6], the IC50 was found to be 23 nM.

GNHWAVGHLL-NH2 (also: reduced bond ψ[CH2NH] between Leu9 and Leu10) [BIM-26092, Gly-Asn-His-Trp-Ala-Val-Gly-His-Leuψ[CH2NH]Leu-NH2 (Neuromedin C analog)]: the bombesin-stimulated [3H]Thymidine uptake, IC50 in assay [4] is 466 nM. The IC50 in assay [6] came out at 242 nM.

Turning to FQWAVGHL (D-Phe at 1; C-terminal amide) [BIM-26122, D-Phe-Gln-Trp-Ala-Val-Gly-His-Leu-NH2 (Litorin analog)], the IC50 in assay [6] amounted to 5.9 nM.

For [pGlu]QWAVGHLL-NH2 (also: reduced bond ψ[CH2NH] between Leu8 and Leu9) [BIM-26101, pGlu-Gln-Trp-Ala-Val-Gly-His-Leuψ[CH2NH]Leu-NH2 (Litorin analog)], in assay [4], the bombesin-stimulated [3H]Thymidine uptake, IC50 amounted to 296 nM. The same molecule showed an IC50 in assay [6] of 118 nM.

Values taken from patent US20050026827A1, “Octapeptide bombesin analogs” (Societe de Conseils de Recherches et d'Applications …, priority 1987, published 2005).
